# Results reported in the Human Domainome abundance scans (Beltran et al. 2025).
# ± gives the uncertainty stated by the source.
# B1: Proto-oncogene vav, residues 782 to 842; numbered along this chain, P15498 (parent)
# chain: KYFGTAKARYDFCARDRSELSLKEGDIIKILNKKGQQGWWRGEIYGRVGWFPANYVEEDYS
# B2: Retinoic acid receptor RXR-alpha, residues 132 to 208; numbered along this chain, P19793 (parent)
# chain: KHICAICGDRSSGKHYGVYSCEGCKGFFKRTVRKDLTYTCRDNKDCLIDKRQRNRCQYCRYQKCLAMGMKREAVQEE
# Variants of: B1
# Test: abundance fitness (aPCA) (normalised: wild type 0, dead -1); higher = more abundant; growth selection in yeast, the domain comes from the species named
# Settings: Homo sapiens
row,Variant,abundance fitness
1,KYFGTAKARYDFCARDRSELSLKEGDIIKILNKKGQQGWWRGEIYGRVGWFPANYVEEDYE,-0.235 ± 0.17
2,KYFGTAKARYDFCARDRSELSLKEGDIIKILNKKGQQGWWRGEIYGRVGWFPANYVEEDYF,-0.28 ± 0.16
3,KYFGTAKARYDFCARDRSELSLKEGDIIKILNKKGQQGWWRGEIYGRVGWFPANYVEEDYG,-0.194 ± 0.17
4,KYFGTAKARYDFCARDRSELSLKEGDIIKILNKKGQQGWWRGEIYGRVGWFPANYVEEDYH,0.019 ± 0.3
5,KYFGTAKARYDFCARDRSELSLKEGDIIKILNKKGQQGWWRGEIYGRVGWFPANYVEEDYI,-0.2 ± 0.35
6,KYFGTAKARYDFCARDRSELSLKEGDIIKILNKKGQQGWWRGEIYGRVGWFPANYVEEDYK,-0.196 ± 0.25
7,KYFGTAKARYDFCARDRSELSLKEGDIIKILNKKGQQGWWRGEIYGRVGWFPANYVEEDYL,-0.095 ± 0.12
8,KYFGTAKARYDFCARDRSELSLKEGDIIKILNKKGQQGWWRGEIYGRVGWFPANYVEEDYP,0.232 ± 0.15
9,KYFGTAKARYDFCARDRSELSLKEGDIIKILNKKGQQGWWRGEIYGRVGWFPANYVEEDYR,-0.011 ± 0.15
10,KYFGTAKARYDFCARDRSELSLKEGDIIKILNKKGQQGWWRGEIYGRVGWFPANYVEEDYV,-0.216 ± 0.15
11,KYFGTAKARYDFCARDRSELSLKEGDIIKILNKKGQQGWWRGEIYGRVGWFPANYVEEDYW,-0.084 ± 0.17

# Variants of: B2
# Test: as above
# Settings: Homo sapiens
row,Variant,abundance fitness
1,AHICAICGDRSSGKHYGVYSCEGCKGFFKRTVRKDLTYTCRDNKDCLIDKRQRNRCQYCRYQKCLAMGMKREAVQEE,-0.531 ± 0.094
2,CHICAICGDRSSGKHYGVYSCEGCKGFFKRTVRKDLTYTCRDNKDCLIDKRQRNRCQYCRYQKCLAMGMKREAVQEE,-0.185 ± 0.053
3,DHICAICGDRSSGKHYGVYSCEGCKGFFKRTVRKDLTYTCRDNKDCLIDKRQRNRCQYCRYQKCLAMGMKREAVQEE,-0.02 ± 0.05
4,EHICAICGDRSSGKHYGVYSCEGCKGFFKRTVRKDLTYTCRDNKDCLIDKRQRNRCQYCRYQKCLAMGMKREAVQEE,-0.117 ± 0.058
5,FHICAICGDRSSGKHYGVYSCEGCKGFFKRTVRKDLTYTCRDNKDCLIDKRQRNRCQYCRYQKCLAMGMKREAVQEE,-0.217 ± 0.065
6,HHICAICGDRSSGKHYGVYSCEGCKGFFKRTVRKDLTYTCRDNKDCLIDKRQRNRCQYCRYQKCLAMGMKREAVQEE,-0.222 ± 0.06
7,LHICAICGDRSSGKHYGVYSCEGCKGFFKRTVRKDLTYTCRDNKDCLIDKRQRNRCQYCRYQKCLAMGMKREAVQEE,-0.333 ± 0.05
8,MHICAICGDRSSGKHYGVYSCEGCKGFFKRTVRKDLTYTCRDNKDCLIDKRQRNRCQYCRYQKCLAMGMKREAVQEE,-0.067 ± 0.05
9,NHICAICGDRSSGKHYGVYSCEGCKGFFKRTVRKDLTYTCRDNKDCLIDKRQRNRCQYCRYQKCLAMGMKREAVQEE,-0.024 ± 0.045
10,RHICAICGDRSSGKHYGVYSCEGCKGFFKRTVRKDLTYTCRDNKDCLIDKRQRNRCQYCRYQKCLAMGMKREAVQEE,-0.286 ± 0.055
11,SHICAICGDRSSGKHYGVYSCEGCKGFFKRTVRKDLTYTCRDNKDCLIDKRQRNRCQYCRYQKCLAMGMKREAVQEE,-0.299 ± 0.042
12,THICAICGDRSSGKHYGVYSCEGCKGFFKRTVRKDLTYTCRDNKDCLIDKRQRNRCQYCRYQKCLAMGMKREAVQEE,-0.435 ± 0.051
13,VHICAICGDRSSGKHYGVYSCEGCKGFFKRTVRKDLTYTCRDNKDCLIDKRQRNRCQYCRYQKCLAMGMKREAVQEE,-0.206 ± 0.042
14,WHICAICGDRSSGKHYGVYSCEGCKGFFKRTVRKDLTYTCRDNKDCLIDKRQRNRCQYCRYQKCLAMGMKREAVQEE,-0.341 ± 0.076
15,YHICAICGDRSSGKHYGVYSCEGCKGFFKRTVRKDLTYTCRDNKDCLIDKRQRNRCQYCRYQKCLAMGMKREAVQEE,-0.119 ± 0.045
16,KCICAICGDRSSGKHYGVYSCEGCKGFFKRTVRKDLTYTCRDNKDCLIDKRQRNRCQYCRYQKCLAMGMKREAVQEE,-0.267 ± 0.071
17,KDICAICGDRSSGKHYGVYSCEGCKGFFKRTVRKDLTYTCRDNKDCLIDKRQRNRCQYCRYQKCLAMGMKREAVQEE,0.072 ± 0.061
18,KEICAICGDRSSGKHYGVYSCEGCKGFFKRTVRKDLTYTCRDNKDCLIDKRQRNRCQYCRYQKCLAMGMKREAVQEE,0.055 ± 0.051
19,KGICAICGDRSSGKHYGVYSCEGCKGFFKRTVRKDLTYTCRDNKDCLIDKRQRNRCQYCRYQKCLAMGMKREAVQEE,-0.005 ± 0.031
20,KIICAICGDRSSGKHYGVYSCEGCKGFFKRTVRKDLTYTCRDNKDCLIDKRQRNRCQYCRYQKCLAMGMKREAVQEE,0.189 ± 0.085
21,KKICAICGDRSSGKHYGVYSCEGCKGFFKRTVRKDLTYTCRDNKDCLIDKRQRNRCQYCRYQKCLAMGMKREAVQEE,0.096 ± 0.047
22,KLICAICGDRSSGKHYGVYSCEGCKGFFKRTVRKDLTYTCRDNKDCLIDKRQRNRCQYCRYQKCLAMGMKREAVQEE,-0.041 ± 0.037
23,KMICAICGDRSSGKHYGVYSCEGCKGFFKRTVRKDLTYTCRDNKDCLIDKRQRNRCQYCRYQKCLAMGMKREAVQEE,0.078 ± 0.054
24,KNICAICGDRSSGKHYGVYSCEGCKGFFKRTVRKDLTYTCRDNKDCLIDKRQRNRCQYCRYQKCLAMGMKREAVQEE,-0.001 ± 0.062
25,KPICAICGDRSSGKHYGVYSCEGCKGFFKRTVRKDLTYTCRDNKDCLIDKRQRNRCQYCRYQKCLAMGMKREAVQEE,-0.453 ± 0.063
26,KQICAICGDRSSGKHYGVYSCEGCKGFFKRTVRKDLTYTCRDNKDCLIDKRQRNRCQYCRYQKCLAMGMKREAVQEE,-0.031 ± 0.043
27,KRICAICGDRSSGKHYGVYSCEGCKGFFKRTVRKDLTYTCRDNKDCLIDKRQRNRCQYCRYQKCLAMGMKREAVQEE,-0.101 ± 0.032
28,KSICAICGDRSSGKHYGVYSCEGCKGFFKRTVRKDLTYTCRDNKDCLIDKRQRNRCQYCRYQKCLAMGMKREAVQEE,0.011 ± 0.043
29,KTICAICGDRSSGKHYGVYSCEGCKGFFKRTVRKDLTYTCRDNKDCLIDKRQRNRCQYCRYQKCLAMGMKREAVQEE,-0.026 ± 0.052
30,KVICAICGDRSSGKHYGVYSCEGCKGFFKRTVRKDLTYTCRDNKDCLIDKRQRNRCQYCRYQKCLAMGMKREAVQEE,-0.142 ± 0.042
